Reference: the supplement of paper PMC6757056
± gives the standard deviation of the averaged measurements.

B1: library; a variant is named by its letters at N, in order (parent)
chain: GCUGUCACCGGUGUAUUACCCUAGUGGUCGACCGGUCUGAUGAGUCUNNNNNNAGACGAAACAGC

Columns and labels:
hypoxanthine [1] = variants of: B1; experiment: FACS-Seq fitted mean relative fluorescence mCherry/BFP without ligand (log10 relative fluorescence); ligand: hypoxanthine (xanthine aptamer); higher = higher reporter protein expression; settings: HEK293T, ligand present: no
Outline: (§1)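 HEK293T libraries were lentivirally transduced with an mCherry reporter carrying the ribozyme switch and an EF1α-BFP marker, enriched, and incubated for 48 h with or without ligand before sorting into 6 bins by mCherry/BFP. Genomic DNA from each bin was PCR-amplified, barcoded and sequenced on MiSeq. Fluorescence is the fitted normal mean of the bin counts. The fit used log10(mCherry/BFP), and means were scaled to five spiked-in control ribozymes.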

hypoxanthine [2] = variants of: B1; experiment: normalized RNA/DNA level with ligand (relative to sTRSVctl = 100) (log10 (% of sTRSVctl)); ligand: hypoxanthine (xanthine aptamer); higher = less ribozyme self-cleavage, higher mRNA level; settings: ligand concentration (+) RNA-Seq: 5 mM, HEK293T, reporter: mCherry (pCS4076), ligand present: yes
Outline: (§2)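 Library plasmids carrying ribozyme switches linked to mCherry, or to eGFP in some ligand experiments, were transfected into HEK293T at 4 µg per 6-well well, with any ligand added 1 h earlier. Seventy-two hours on, total RNA was extracted with EDTA and reverse-transcribed, amplified, barcoded and sequenced. RNA level was RNA over DNA reads normalized to a spiked-in non-cleaving sequence or to the top sequences, then scaled and log-transformed. The top set was 25 sequences, the transform was ×100 and log10, and sequences needed ≥100 DNA reads.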

hypoxanthine [3] = variants of: B1; experiment: normalized RNA/DNA level without ligand (relative to sTRSVctl = 100) (log10 (% of sTRSVctl)); ligand: hypoxanthine (xanthine aptamer); higher = less ribozyme self-cleavage, higher mRNA level; settings: HEK293T, reporter: mCherry (pCS4076), ligand present: no
Outline: as §2

hypoxanthine [4] = variants of: B1; experiment: FACS-Seq fitted mean relative fluorescence mCherry/BFP with ligand (log10 relative fluorescence); ligand: hypoxanthine (xanthine aptamer); ligand concentration (+) FACS-Seq: 5 mM; higher = higher reporter protein expression; settings: HEK293T, ligand present: yes
Outline: as §1

Variant	FACS-Seq fitted mean (log10) (hypoxanthine [1])	normalized RNA/DNA level with ligand (log10) (hypoxanthine [2])	normalized RNA/DNA level without ligand (log10) (hypoxanthine [3])	FACS-Seq fitted mean (log10) (hypoxanthine [4])
UCCUGC	0.86 ± 0.054	2.01 ± 0.056	1.919 ± 0.018	0.812 ± 0.091
UCCUGG	0.439 ± 0.047	1.94 ± 0.025	1.77 ± 0.073	0.518 ± 0.021
ACGCAU	0.3211 ± 0.00042	1.79 ± 0.021	1.42 ± 0.032	0.534 ± 0.042
ACGCAA	0.184 ± 0.18	1.88 ± 0.022	1.55 ± 0.039	0.149 ± 0.02
ACGCAG	-0.302 ± 0.02	1.58 ± 0.041	1.09 ± 0.044	0.377 ± 0.039
ACCUGG	0.3055 ± 0.0017	1.914 ± 0.011	1.55 ± 0.021	0.817 ± 0.071
ACCUGA	0.156 ± 0.046	1.96 ± 0.021	1.79 ± 0.049	0.323 ± 0.057
ACCAGU	-0.346 ± 0.35	1.907 ± 0.0063	1.8 ± 0.064	-0.721 ± 0.15
UCCAAG	0.264 ± 0.033	1.897 ± 0.015	1.54 ± 0.036	0.457 ± 0.044
UCCAAA	0.00132 ± 0.058	1.937 ± 0.0063	1.804 ± 0.0049	0.0172 ± 0.041
ACCUUG	0.241 ± 0.0074	1.88 ± 0.014	1.6 ± 0.055	0.521 ± 0.04
GCCUCG	0.33703 ± 0.00012	1.91 ± 0.039	1.6 ± 0.029	0.649 ± 0.049
UCCUAC	0.76 ± 0.022	2.01 ± 0.096	1.88 ± 0.076	0.751 ± 0.058
UCGCGU	0.334 ± 0.04	1.9 ± 0.026	1.56 ± 0.048	0.509 ± 0.016
CCGAAA	0.595 ± 0.015	1.91 ± 0.049	1.7 ± 0.04	0.689 ± 0.05
CCGAAG	-0.0351 ± 0.034	1.719 ± 0.0075	1.2 ± 0.14	0.496 ± 0.027
UCCACG	-0.24 ± 0.012	1.94 ± 0.14	1.71 ± 0.036	0.0232 ± 0.017
UCGAGA	0.0619 ± 0.098	1.74 ± 0.046	1.16 ± 0.086	0.455 ± 0.15
UCGAGU	-0.023 ± 0.0044	1.74 ± 0.037	1.2 ± 0.071	0.407 ± 0.029
CCCGGG	0.92 ± 0.051	1.94 ± 0.12	1.6826 ± 0.0015	0.833 ± 0.061
CCCGGA	0.102 ± 0.0056	1.97 ± 0.042	1.88 ± 0.036	0.0786 ± 0.0026
UCAUCA	0.87 ± 0.1	1.99 ± 0.031	1.98 ± 0.044	0.763 ± 0.052
CCGAUU	0.52 ± 0.04	1.963 ± 0.019	1.78 ± 0.027	0.524 ± 0.036
CCAUAU	0.286 ± 0.014	1.96 ± 0.029	1.82 ± 0.057	0.542 ± 0.01

Variant	FACS-Seq fitted mean (log10) (hypoxanthine [1])	normalized RNA/DNA level with ligand (log10) (hypoxanthine [2])	normalized RNA/DNA level without ligand (log10) (hypoxanthine [3])	FACS-Seq fitted mean (log10) (hypoxanthine [4])
CCCCAA	-0.321 ± 0.081	1.92 ± 0.018	1.78 ± 0.046	-0.16 ± 0.025
CCGCUA	0.42 ± 0.077	2.03 ± 0.053	1.827 ± 0.01	0.474 ± 0.034
GCAUUG	0.25 ± 0.015	1.88 ± 0.0068	1.4 ± 0.022	0.602 ± 0.062
UCCCCA	0.858 ± 0.055	1.94 ± 0.08	1.82 ± 0.036	0.843 ± 0.088
GCGAUG	0.314 ± 0.033	1.77 ± 0.028	1.24 ± 0.092	0.754 ± 0.064
GCGAUC	0.2339 ± 0.00091	1.87 ± 0.041	1.46 ± 0.038	0.601 ± 0.025
GCGAUU	-0.0877 ± 0.0032	1.88 ± 0.06	1.65 ± 0.026	0.166 ± 0.016
ACCGCG	0.331 ± 0.028	1.826 ± 0.015	1.5 ± 0.097	0.608 ± 0.026
ACCGCC	0.708 ± 0.051	1.938 ± 0.0023	1.879 ± 0.0089	0.737 ± 0.025
CCGCAG	0.345 ± 0.031	1.82 ± 0.072	1.39 ± 0.032	0.638 ± 0.042
ACGAAU	0.0248 ± 0.013	1.77 ± 0.0059	1.19 ± 0.025	0.504 ± 0.01
ACGAAG	-0.023 ± 0.0073	1.49 ± 0.041	1.072 ± 0.0031	0.501 ± 0.023
ACGAAA	0.129 ± 0.049	1.86 ± 0.039	1.47 ± 0.056	0.425 ± 0.036
GCAUGG	0.196 ± 0.083	1.83 ± 0.052	1.33 ± 0.063	0.701 ± 0.049
GCAUGC	-0.393 ± 0.035	1.926 ± 0.01	1.74 ± 0.14	-0.314 ± 0.05
ACCGUA	0.247 ± 0.0083	1.93 ± 0.065	1.822 ± 0.014	0.474 ± 0.038
UCCAUG	-0.135 ± 0.032	1.88 ± 0.074	1.49 ± 0.025	-0.271 ± 0.076
UCAUAG	0.588 ± 0.1	1.89 ± 0.033	1.69 ± 0.022	0.567 ± 0.11
CCCUUA	0.315 ± 0.0096	2.002 ± 0.019	1.905 ± 0.014	0.279 ± 0.083
ACAUAG	0.305 ± 0.026	1.84 ± 0.072	1.52 ± 0.024	0.522 ± 0.046
ACCAAC	0.0939 ± 0.026	1.93 ± 0.025	1.883 ± 0.0074	0.317 ± 0.049
ACCAAA	0.2 ± 0.028	1.938 ± 0.011	1.8 ± 0.018	0.487 ± 0.046
ACCAAU	0.003 ± 0.21	1.9 ± 0.091	1.74 ± 0.026	0.157 ± 0.038
ACGAUA	0.143 ± 0.0029	1.87 ± 0.03	1.582 ± 0.013	0.508 ± 0.011

Variant	FACS-Seq fitted mean (log10) (hypoxanthine [1])	normalized RNA/DNA level with ligand (log10) (hypoxanthine [2])	normalized RNA/DNA level without ligand (log10) (hypoxanthine [3])	FACS-Seq fitted mean (log10) (hypoxanthine [4])
ACGAUG	0.311 ± 0.018	1.734 ± 0.013	1.23 ± 0.036	0.629 ± 0.079
GCCGAU	0.193 ± 0.041	1.96 ± 0.027	1.76 ± 0.045	-0.0573 ± 0.24
GCCGAG	0.182 ± 0.0042	1.856 ± 0.013	1.39 ± 0.019	0.5906 ± 0.0027
GCCGAA	0.359 ± 0.087	1.96 ± 0.071	1.756 ± 0.0038	0.445 ± 0.055
GCGAGA	-0.0976 ± 0.016	1.8 ± 0.042	1.31 ± 0.0073	0.312 ± 0.025
GCGAGU	0.238 ± 0.013	1.86 ± 0.044	1.23 ± 0.059	0.662 ± 0.069
GCGAGG	-0.188 ± 0.032	1.637 ± 0.015	1.11 ± 0.036	0.5 ± 0.017
ACAUGG	0.335 ± 0.022	1.87 ± 0.035	1.29 ± 0.027	0.631 ± 0.1
ACAUGA	0.3098 ± 0.0019	1.91 ± 0.019	1.66 ± 0.026	0.509 ± 0.021
ACAUGU	0.399 ± 0.057	1.91 ± 0.052	1.65 ± 0.061	0.567 ± 0.024
CCAUUC	-0.142 ± 0.078	2.022 ± 0.0033	1.9 ± 0.07	0.309 ± 0.014
GCCAUA	0.231 ± 0.083	1.95 ± 0.049	1.85 ± 0.079	0.487 ± 0.0075
GCCAUG	0.392 ± 0.0043	1.87 ± 0.094	1.48 ± 0.15	0.683 ± 0.074
CCCUAA	0.693 ± 0.022	1.94 ± 0.022	1.907 ± 0.011	0.837 ± 0.06
GCCCUG	-0.113 ± 0.029	1.873 ± 0.0091	1.49 ± 0.049	0.497 ± 0.092
GCCCUU	0.019 ± 0.061	1.95 ± 0.065	1.92 ± 0.058	0.231 ± 0.0079
GCAUCG	0.0876 ± 0.11	1.964 ± 0.018	1.506 ± 0.0042	0.53188 ± 0.00023
CCGACG	0.527 ± 0.0072	1.9241 ± 0.0017	1.685 ± 0.0014	0.6331 ± 0.0049
CCGACC	0.287 ± 0.081	2.08 ± 0.082	1.85 ± 0.063	0.555 ± 0.015
CCGACU	0.195 ± 0.058	1.989 ± 0.013	1.82 ± 0.038	0.381 ± 0.0067
ACGACA	0.53 ± 0.013	1.912 ± 0.013	1.638 ± 0.016	0.613 ± 0.031
ACGACG	0.162 ± 0.0022	1.82 ± 0.045	1.26 ± 0.019	0.706 ± 0.059
ACGACU	0.28 ± 0.024	1.84 ± 0.039	1.59 ± 0.0056	0.447 ± 0.037
GCCCAG	0.0481 ± 0.032	1.81 ± 0.052	1.4 ± 0.027	0.24 ± 0.019
